Laboratory results published in the Immune Epitope Database (IEDB).

Assays:
HLA-A*26:02 = experiment: IEDB peptide-MHC binding, purified MHC/competitive/fluorescence; filed as Kd, often an IC50 or EC50 that approximates it; ≥ and ≤ were set here for values at or beyond the usual limits of such assays; conditions: source organism: Orthomarburgvirus marburgense
HLA-A*02:06 = experiment: as above; conditions: source organism: Orthomarburgvirus marburgense
HLA-B*58:01 = experiment: IEDB peptide-MHC binding, purified MHC/direct/fluorescence; filed as Kd, often an IC50 or EC50 that approximates it; ≥ and ≤ were set here for values at or beyond the usual limits of such assays; conditions: source organism: Marburg virus - Musoke, Kenya, 1980
HLA-B*27:05 = experiment: as above; conditions: source organism: Marburg virus - Musoke, Kenya, 1980
HLA-B*57:01 = experiment: as above; conditions: source organism: Marburg virus - Musoke, Kenya, 1980
HLA-B*48:01 = experiment: as above; conditions: source organism: Marburg virus - Musoke, Kenya, 1980
HLA-B*73:01 = experiment: as above; conditions: source organism: Marburg virus - Musoke, Kenya, 1980
HLA-A*68:02 = experiment: as above; conditions: source organism: Marburg virus - Musoke, Kenya, 1980
HLA-B*18:01 = experiment: as above; conditions: source organism: Marburg virus - Musoke, Kenya, 1980
HLA-B*07:02 = experiment: as above; conditions: source organism: Marburg virus - Musoke, Kenya, 1980
HLA-A*01:01 = experiment: as above; conditions: source organism: Marburg virus - Musoke, Kenya, 1980
HLA-A*02:01 = experiment: as above; conditions: source organism: Marburg virus - Musoke, Kenya, 1980
HLA-A*31:01 = experiment: as above; conditions: source organism: Marburg virus - Musoke, Kenya, 1980
HLA-B*08:02 = experiment: as above; conditions: source organism: Orthomarburgvirus marburgense
HLA-B*27:02 = experiment: as above; conditions: source organism: Orthomarburgvirus marburgense
HLA-A*11:01 = experiment: as above; conditions: source organism: Marburg virus - Musoke, Kenya, 1980
HLA-B*15:09 = experiment: as above; conditions: source organism: Orthomarburgvirus marburgense
HLA-B*15:01 [1] = experiment: as above; conditions: source organism: Marburg virus - Musoke, Kenya, 1980
HLA-B*15:17 = experiment: as above; conditions: source organism: Marburg virus - Musoke, Kenya, 1980
HLA-B*35:01 = experiment: IEDB peptide-MHC binding, purified MHC/competitive/fluorescence; filed as Kd, often an IC50 or EC50 that approximates it; ≥ and ≤ were set here for values at or beyond the usual limits of such assays; conditions: source organism: Yersinia pestis Nepal516
HLA-B*51:01 = experiment: as above; conditions: source organism: Yersinia pestis Nepal516
HLA-B*40:13 = experiment: as above; conditions: source organism: Yersinia pestis Nepal516
HLA-B*15:42 = experiment: as above; conditions: source organism: Yersinia pestis Nepal516
HLA-A*68:23 = experiment: as above; conditions: source organism: Yersinia pestis Nepal516
HLA-B*45:06 = experiment: as above; conditions: source organism: Yersinia pestis Nepal516
HLA-A*32:15 = experiment: as above; conditions: source organism: Yersinia pestis Nepal516
HLA-B*83:01 = experiment: as above; conditions: source organism: Yersinia pestis Nepal516
HLA-B*15:01 [2] = experiment: as above; conditions: source organism: Yersinia pestis Nepal516
HLA-A*32:07 = experiment: as above; conditions: source organism: Yersinia pestis Nepal516

## KRLLLKLDF
HLA-A*26:02
  Kd: ≥ 20 µM
HLA-A*02:06
  Kd: 3.93 µM
HLA-B*58:01
  Kd: ≥ 20 µM
HLA-B*27:05
  Kd: 0.382 µM
HLA-B*57:01
  Kd: ≥ 20 µM
HLA-B*48:01
  Kd: ≥ 20 µM
HLA-B*73:01
  Kd: ≥ 20 µM
HLA-A*68:02
  Kd: ≥ 20 µM
HLA-B*18:01
  Kd: ≥ 20 µM
HLA-B*07:02
  Kd: ≥ 20 µM
HLA-A*01:01
  Kd: ≥ 20 µM
HLA-A*02:01
  Kd: ≥ 20 µM
HLA-A*31:01
  Kd: ≥ 20 µM
HLA-B*08:02
  Kd: ≥ 20 µM
HLA-B*27:02
  Kd: 12.2 µM
HLA-A*11:01
  Kd: ≥ 20 µM
HLA-B*15:09
  Kd: ≥ 20 µM
HLA-B*15:01 [1]
  Kd: ≥ 20 µM
HLA-B*15:17
  Kd: ≥ 20 µM

## MPFAWQFGF
HLA-B*35:01
  Kd: ≤ 0.0001 µM
HLA-B*51:01
  Kd: 0.669 µM
HLA-B*40:13
  Kd: 0.232 µM
HLA-B*15:42
  Kd: ≥ 5 µM
HLA-A*68:23
  Kd: 0.0027 µM
HLA-B*45:06
  Kd: ≥ 5 µM
HLA-A*32:15
  Kd: 0.0032 µM
HLA-B*83:01
  Kd: 0.0297 µM
HLA-B*15:01 [2]
  Kd: ≥ 20 µM
HLA-A*32:07
  Kd: 0.0056 µM
